Data taken from the nanobody polyreactivity screen of Harvey et al. (2022).

Assay: yeast display, Sf9 membrane polyspecificity reagent, FACS + sequencing; frameworks hold sequencing errors
How it was run: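 Nanobodies from a synthetic yeast display library (Saccharomyces cerevisiae BJ5465), induced 36–48 hours with galactose, were stained 1 hour at 4 °C with 10% biotinylated, detergent-solubilized Sf9 membrane reagent, enriched on streptavidin microbeads, then FACS-sorted. Anti-HA (expression) and streptavidin (reagent binding) fluorescence set low and high (top ~1%) gates. Polyreactivity labels come from the gate of origin. Genes were colony-PCR amplified, MiSeq 2 × 250 sequenced and filtered by CDR length.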

Sequence | polyreactivity (PSR sort gate)
QVQLVESGRGLVQAGVSLRLSCADSGSTFDYNAMGCYRQATGKERELVPVNRSGGTTYYADSVKGRFTISRDNANNTVYLQMNSLKPEDTAVYYCAAAFQRRAGSYGGSRRYGYWGQVTQVTVSS | high polyreactivity
QVPLVESGGGLVQAGGILRISCAATGSSFRFKAMGWYRQAPGQERELVAAISRRGSSTYYADSVKGRCTISRDNAKNRVYLQMNSLKAEDTAVYYCAASGGYRPHRYQIGDYDNWGQGTQVTLSS | high polyreactivity
QVQLVESGGGLVQAGGSLRLSCAASGSIFYSYAMGWYRQAPGKERELVAAISWDASTYYADSVKGRFTISRDNAKNTVYLQMNSLKPEDTAVSYCNADIPYYFVYDAYDYWGQGTQVTVSS | low polyreactivity
QVQLVESVGGLVQAGGSLRLSCAASGRTFWWYTMGWYRQAPGKERELVAVISSTGGRTYYADSVKGSFTISRDNAKNTVYLQMNSLKPEDTAVYYCAAEYVSAKWEYGYWGQGTQVTVSS | low polyreactivity
QVQLVESGGGLVQAGGSLRLSCAASGRIFTKYAMGWYRQAPGKERELVAGISSSGGSTYYADSVKGRFTISRDIAKNTVYLQMNSLKPEDTAVYYCAARGYYKYDYWGQGTQVTVSS | high polyreactivity
QVQLVESWGGLVQSGGSLRLICAASGSTNQYNAMGWYRQAPGKERELVAAISLSGATTYYADSVKGRCTISRDPAKNTVYLQMNIQKPEDTSVYYCAADFGWFYDCVAVWFIRILGDYWGQGTQVTVSS | low polyreactivity
KDQLVESGGGLVQAGGSLRLSGAASGRTFASNDMVWYRQAPGKERELVADINNGARTYYADSVKGRFTISRDNAKNTVYLQMNSLKPEDSAVYYCNARPWYWWECRYDYWGQGTQVTVSS | high polyreactivity
QVQLVESGGGLVQAGGSLRLSCAASGRIFLVYGMGWSRQAPGKERELVASITDRGGSTYYADSVKGRFTISRDNAKNTVYLQMYSLKPEDTAVYYCAADGAFYASTEMDYWGQGTQVTVSS | low polyreactivity
QVQLVESGGGLVQAGGSLRLSCAASGRILLYNAMGWYRQAPGKERELVAAISRSGGSTYYADSVKGRFTISRDNAKNTVYLQMNSLKPEDTAVYYCAAQHGYPRYYYWGQGTQVTVSS | high polyreactivity
QVQLVESRGGLVQAGGSLSLSCAASGSTYNASAMGWYRQATGKERELVAAISSGGSTYYADSVKGRFTISRDNANNTVYLQMNSLKPEDTAVLYCAAVLTGHYYRFDYWGQGTQVNVSS | low polyreactivity
QVQLVESGGGLVQAGGSLRLSCAASGSIFNYYAMGWYRPAPGKERELVAGITTSGGSTYYADSVKGRFTISRDNAKNTVYLQMNSLKPEDTAVYYCAAYDYISSTYFLDDYWGQGTQVTVSS | low polyreactivity
QVPLVEAGGGLVQAGGSLRVSCAASGITFQLYGMGWYSQAPGKERELVAAITGSDGITYYADSVKGRFTISLDNAKNTVYLPMNSLKPEDTAVYYCAAEWWDYWNEYDYWGQGTQVTVSS | high polyreactivity
QVQLVESGGGLVQAGGSLRLSCAATGIIFTGKSMGWYRQAPGTERELVASITSGDTTNYADSVKGRFTISRDNAKNTVYLQMNSLKPEDTAVYSCAKELQVRQGGDYWGQGTQVTVSS | low polyreactivity
QVQLVESGGGLVQAGGSLRLSCAASGFTFEWNTMGWYRQAPGKERELVARINWSSGRTYYADSVKGRFTISRDNAKNTVYLQMNSLKPEDTAVYYCAASPYHSAYQNMDYWGQGTQVTVSS | high polyreactivity
QVQLVESGGGLVQAGGSLRLSCAASGSISWVYAMGWYRQAPGKERELVAAISNSGGSTYYADSVKGRFTISRDNAKNTVYLQMNSLKPEDTAVYYCAADGYFYYSAFWASPYEYWGQGTQVTVSS | high polyreactivity
QVQHVESGGGLVQAGGSLRLSCAASGRTFQLYDMGWYRQPHGKDRELVAGITITGGSTYYADSVKGRFTISRDIAKNTVYIQMISLKPEDTAVYYCAARKARPPFPHPFDYYWGQGTQVTVSS | low polyreactivity
QVQLVESGGGLVQAGGSLRLSCAASGSTYRYTMGWYRQAPGKERELVAAITGSAGRTYYADSVKGRFTISRDNAKNTVYLQMNSLKPEDTAVYYCNKVRPRKFWDYYYWGQGTQVTVSS | high polyreactivity
QVQLVESGGGLVQAGGSLRLSCASSGSIFSYYAKGWYIQAPGKASQLVADISQSGGTTYYADSVKGRFTISRDNAKNTVYLLKNSLKPEETAVYYCAARAPSSFDTQYYYWGEGTQVTVSS | low polyreactivity
QVQLVESGGGLVQAGGSLRLSCAASGRTFDYKAMGWYRQAPGKERELVAAIDVNGGDTYYADSVKGRFTISRDNAKNTVYLQMNSLKPEDTAVYYCAAERDARTDDYWGQGTQVTVSS | low polyreactivity
QVQLVESGGALVHAGGSLRLSCAASGSTFSGYDMVWYRQAPGKERELVAAISTYYADSVKGRFTISRDNAKTTVFLQMYCLKPEDRAVYYCAKPWGRYDYLGQGTQVTVSS | low polyreactivity
QVQLVESGGGLVQAGGSLRLSCAASGRIFSFNAMGWYRQAPGKERELVAGITDSGGSTYYADSVKGRFTISRDNAKNTVYSQMNSLKPEDTAVYYCNAEWPYSRVRDYFYAYDYWGQGTQVTVSS | low polyreactivity
QVQLVESGGGLVQAGGSLRLSCAASGFIFAYYAMGWYRQAPGKERELVAAISSSGGRTYYADSVKGRFTISRDNAKNTVYLQMNSLQPEDTAVYYCAATLSYYVGVRYDYWGQGTQVTVSS | high polyreactivity

Sequence | polyreactivity (PSR sort gate)
QVQLVESGGGLVQAGGSLRLSCAASGRTSLAYAMGWYRKATGKERELVAGITSGGNTNYADSVKGRFTISCDNAKNSVYLQMNRLKPEDTAVYYCNKKKRWQWYSESVLDELGFYSWGQGTQVTVSS | low polyreactivity
QVQLVESGGGIVQAGGSLRLSFAASGSIFEINALGWYRQAPGKERELVAAITGSGGSTHYADSVKGRFTISRDTAKNTVYLQMNSLKPEDTAVYYCARTQRYDYGYDYWGQGTQVTVSS | low polyreactivity
QVQLVESGGGLVQAGGSLRLSCAASGLTFLRNGMGLYRQAPGKERELVASITRSGTRTYYADSVKGRFTISRDNAKNSVYLQMNSLKPEDTAVYYCAARAYVSHYGVSNFGFYYWVQGTQVTVSS | high polyreactivity
QVQLLESGGGLVQAGGSLRLSCAASGSIFVFYAMGWYRQAPGKERELVAAISSSGGSTYYADTVKGRITISRDNAKNTVYLQMNSLKPEDTAVYYCAVRRSTGSRSPPMYYWGQGTQVTVSS | high polyreactivity
QVQLVESGGGLVQAGGSLRLSCAASGFIFGYYAMGWDRQAPGKERELVAAITSDGNTDYSDSVKGRFTISRDNAKNTVYLQMNSLKPEDTAVYYCATDWVDHYDYWGQGTQVTVSS | low polyreactivity
QVQLVESGGGLVQAGGSLRLICAASGSTIVYYAMAWYRQAPGKERELVAAISRVGSTNYADSVKGRFTISRDNAKNTVYLQMNSLKPEDTAVYYCNAERSRRYSGWVNYAPLNYWGQGTQVTVSS | low polyreactivity
QVQLVESGGGLVQSGGSLRLSCAASGYIIPRYAMGWYIHAPGKERELVAGITTGVRTNYADSVKGRFTISRDNAKNSVYLQMNSLKPGDTAVYYCNARYFRYRYNRYDYWGQGTQVTVSS | high polyreactivity
QVQLVESGGGLVQAGGSLRLSCAASGIIFYTNAMGWYRQAPGKEREFVAAINTSGGITYYADSVKGRFTISRDNATNTVYLQMNSLKPEDTAVYYCAKDRRYRPPYGYEIEYAYWGQGTQVTVAS | low polyreactivity
QDQLVESGGGLVQAGGSLRLSCAASGRTFRWNAMGWYRQAPGKERELVAAITKSGGSTYYADSVKGRFTISRDNAKNTVYLQMNSLKPEDTAVYYCAAPRYSTFTYDYWGQGTQVTVSS | low polyreactivity
QVQLVESGGGLVQAGGSLRLSCAASVSTFDGYAMGWYRQAPGKERELVAAISSNGGSTYYADSVKGRFTISRDNAKNTVYLQMNSLKPEDTAVYYCNTYRSTVYSWTHLLYDYWGQGTQVTVSS | low polyreactivity
QVQLVESGGGLVQAGGSLRLSCAASGGTFTRYTMGWYRQAHGKESELVAAISSSGGSTYYADSVKGRFTISRDNAKNTVYLQMNSLKPEDTAVYYCAAFKASSKQYPYDYWGQGTQVTVSS | high polyreactivity
QVQLVESGRGLVQAGGSLRLSCAASGRIFYYYAMGWYRKAPRKERELVAANTETGGNTYYADSVKGRFTISRDNAKNTVYLQMNSLKPEDTAVYYCARKGRRTHHYGLYSSSVYYWGQGTQVTVSS | low polyreactivity
QVQLVESGGGLVQAGGSHRLSCAASGRIFGRNAMGCYRQAPGKERELVATITSGGGTNYADSVKGRFTISRDNAKNTVYLQMNSLKPEDTAVYYCAATVAILRKFWMDYWGQGTQVTVSS | low polyreactivity
QVQLVESGGGLVQAGGSLRLSCAASGRIWVNAMGCYRQAPWKESELVAAISTSSASTYYADSVKGRFTISRDNAKNTVYLEMNSLKPEDTAVYYCAARWARQLGSGRRGDYWGQGTQVTVSS | high polyreactivity
QVKLVESGGGLVQAGGTLPITCAASGRTFARYAMVWYRQAPGKERELVSAITGRSGTNTYYADSVKGRFTISRDNAKNTVYLQMNSLKPEDTAVYYCAADLQGYYFRGRWTSYDYWGQGTQVTVSS | high polyreactivity
QVQLVESGGGLVQAGGSLRLSCAASGSLFDHYAMGWYRQEPGTERELVARISWSGGSTYYADSVKGRFTISRDNAKNTVYLQMNRLKPEDTAVYYCARAGRSWDTLYKYYLEHDYWGQGTQVTVSS | low polyreactivity
QVQLVESGGGLVQAGGSLRLSCAASGRTFVRNAMGWYRPAPGKERELVAAISSIGDSTYYADSVKGRFTISRDNAKNTVYLQMNSLKPEDTAVYYCAAEWVTSYYNYYHWGQGTQVTVSS | low polyreactivity
QVQLEESGGGLVQAGGSLRLSCAASGNIFWGNAMGWYRQAPGKEMELVAAITSIDSSTYYADSVKGRFTISRDNAKNTVYLQMNSLKPEDTAVYYCAADGDWYGYIWQSDDGYDSWGQGTQVTVSS | low polyreactivity
QVQLVESGGGLVQAGGSLRLSCAASGSTFGYNAMGWYRQAPGKERELVAASSRSGGRTYYADSVKGRFTISRDNAKNTVYLQMNSLKPEDTAVYYCATYYTNKVPARYYWGQGTQVTVSS | high polyreactivity
QVQLVESGGGLVQAGGSLRLSCAASGSTFGYYGMGWYRQAPGKERELVAAISTGGRTNYADSVKGRFTISRDNAKNTVYLQMNSLKPEDTAVYYCAADFLSAAYRPSWYRFDYWGQGTQVTVSS | low polyreactivity
QVQLVESGGGLVQAGGSLRLSCAASGSIFAGYAMGWYRQAPGKERELVAAISWSGGRTYYADSVKGRFTISRDNAKNTVYLQMNSLKPEDTAVYYCAALYIYRTYAALSRYDYWGQGTQVTVSS | high polyreactivity
